# Laboratory results taken from the DeepSol protein solubility set.
# Experiment: soluble on expression in E. coli; label from the status in PepcDB or PDB records
row,Sequence,soluble on expression in E. coli
1,MAVPGFTFDEALLTEIAASFQLRASNINALTALVQRLSGDFDRSTPQVMNMATGAGKTYVMAAFIEYMRRQGLRNVMIVTPGLVVQTKTVANFTQGSPKFIDGSPVPPRVVTPENYKSNPADQTAFTEQGASNVYVFNVQQLIGPKDMDGDTTSGSKAAVARGVHKFSEYAGVLYDELKNMDDLVVLADEHHLYSAKAKAFHAAIHDLEPAALVGLTASPGEKDETIFTYPLYKAIADKNVKQPVIVYRKDGYGELGEYQQLKDAKTLLETKAGHYAVKNQEEGTSPISPVMLVVCEDIAHATRIEETLVGPDLFGDPYAVLRVDSDSMNEEKAALLDAIDTPDSPVRAVVSVNKLKEGWDCRSIAVMVTLRAMDSDILTQQTLGRGLRLPYGKYAEVEAIDTLDIVAHESFQRLLSSEKVNKSFGFDKRKTSQPAPPQPVHPMDVTPPTPVPTPDLDPVPGGNTTAPTPVLPPADPQPVAPDLDKGTDTRPPLGLKELGGDGASPEDLYPEPTPLAVVELVEKFRDVSFLFPRTTYTAKNAAYPLEKLMQDEIIQVARQITDNPQAVLERLALAGDEAQGRVMAKRLTQGTIDAIALDEDAVKKQLVGAIITHRRVERSPENISQAKNRIAPLIYNNALATTWTVDTLHVASILLGKAIDASVRQFLANLEPDVTLVPLTMPTRTRFELGVGKTIEPRPGEFDKYINGQFYSGWTRNLYTAASFDSNSAEHKLACDLDVSPDVEWWTRLYMADGASIDYQVGKTYYPDFVVRDREGRTWIVEGKDAGGRTNEEVKAKRDAAELALNLMASNEDMGALKVGYIIAYEDTIKEAGSWSRLISMSGAVKSAN,not soluble
2,MGSSHHHHHHSSGLVPRGSHMNNIDFDSIAKMLLIKYKDFILSKFKKAAPVENIRFQNLVHTNQFAQGVLGQSQHLCTVYDNPSWHSIVLETLDLDLIYKNVDKEFAKDGHAEGENIYTDYLVKELLRYFKQDFFKWCNKPDCNHCGQNTSENMTPLGSQGPNGEESKFNCGTVEIYKCNRCGNITRFPRYNDPIKLLETRKGRCGEWCNLFTLILKSFGLDVRYVWNREDHVWCEYFSNFLNRWVHVDSCEQSFDQPYIYSINWNKKMSYCIAFGKDGVVDVSKRYILQNELPRDQIKEEDLKFLCQFITKRLRYSLNDDEIYQLACRDEQEQIELIRGKTQETKSESVSAASK,soluble
3,MQDYMQHLPHMQEIKSEILNKVLTQVQSYDESQFSAKDVKNALNQTHLSIEHLKALLSSAAEDFIEELAFKSAKVKQKYFGNSISLFTPLYLSNYCNSKCVYCGFQKGNKIARAKLNEAEIHEEMQAIAKSGLEEILMLTGEGREFASVEYIANACKIAREYFKVVGVEIYPMNEDEYKILHEKGCDYVTVFQETYNPLKYSKIHLAGEKRIFPYRFNAQERALKAGMRGVAFAALLGIDDFRKDALATALHAHFLQQAYSHAEISISVPRLRPIINNAKIHPKDVSEKRLLQVLCAYRLFLPFAGITISSRERIGFRDEVIKLGATKMSAGVSVGIGEHKGEKKGDEQFEISDDRSVDEILAMLKRSNLQAVMSDSIYVG,not soluble
4,MSLSKEVVYVPTGSIAKERSIFFDLKHMDKLTDLVNSGSFSADSKIKSEASGNIRMDVILSADNKFAAVQLFQFVPYTYQPVTAVHYFTNDAAAAVAAFLTKSQLNEGHHHHHH,soluble
5,MPMPFTRDDDYDSDPEVQAEKEMAKKDPIGFAIDSSSLTSMKKAAAAAAKDQVSTTPPNLVIGSNGGAGTIATVPRSKSQDEIVKKQKTAGQSKALKKQRSRGISGCSSRKYSGYDDEMDEDFGDDEDYDHYGGQEVFDEDEEDTFVAKK,not soluble
6,GPGSMKALVRRFGPEPSVIEECSADQEWEKPCLASTEDTAVAPGDSVKDTRNNLSGSEGLANGRAESSQRAVDVSSFIRLFSVEWCLTEEQQAENSRRLDAFFHPHPAPPSCQPAPLLPSVQTCGETVDPDIWSLPEVSQEELQRWREEKLSLSDRLVWRGRKTIKQVNMRRM,not soluble
7,MSHHPDLSVSLDQLLLRKEVRVRQQGEWLKRHSLPLVSFTVNMPGAVKLNAASQTVMDAGMRAIQELCQKTGWRQVACQLLVEKTGPEAFVVIQAPSASMLKKAMMKIEREHPLGRLMDLDVIDVDGHIISRQGAQLPRRRCLLCERDAVICARSRRHSVEALLAKIEEMTHDYSCCA,soluble
